Data: paper PMC6896899

Target: megalin (human (endogenous in primary PTECs)) (UniProt P98164)
Sequence of UniProt P98164 (P98164 26-4655): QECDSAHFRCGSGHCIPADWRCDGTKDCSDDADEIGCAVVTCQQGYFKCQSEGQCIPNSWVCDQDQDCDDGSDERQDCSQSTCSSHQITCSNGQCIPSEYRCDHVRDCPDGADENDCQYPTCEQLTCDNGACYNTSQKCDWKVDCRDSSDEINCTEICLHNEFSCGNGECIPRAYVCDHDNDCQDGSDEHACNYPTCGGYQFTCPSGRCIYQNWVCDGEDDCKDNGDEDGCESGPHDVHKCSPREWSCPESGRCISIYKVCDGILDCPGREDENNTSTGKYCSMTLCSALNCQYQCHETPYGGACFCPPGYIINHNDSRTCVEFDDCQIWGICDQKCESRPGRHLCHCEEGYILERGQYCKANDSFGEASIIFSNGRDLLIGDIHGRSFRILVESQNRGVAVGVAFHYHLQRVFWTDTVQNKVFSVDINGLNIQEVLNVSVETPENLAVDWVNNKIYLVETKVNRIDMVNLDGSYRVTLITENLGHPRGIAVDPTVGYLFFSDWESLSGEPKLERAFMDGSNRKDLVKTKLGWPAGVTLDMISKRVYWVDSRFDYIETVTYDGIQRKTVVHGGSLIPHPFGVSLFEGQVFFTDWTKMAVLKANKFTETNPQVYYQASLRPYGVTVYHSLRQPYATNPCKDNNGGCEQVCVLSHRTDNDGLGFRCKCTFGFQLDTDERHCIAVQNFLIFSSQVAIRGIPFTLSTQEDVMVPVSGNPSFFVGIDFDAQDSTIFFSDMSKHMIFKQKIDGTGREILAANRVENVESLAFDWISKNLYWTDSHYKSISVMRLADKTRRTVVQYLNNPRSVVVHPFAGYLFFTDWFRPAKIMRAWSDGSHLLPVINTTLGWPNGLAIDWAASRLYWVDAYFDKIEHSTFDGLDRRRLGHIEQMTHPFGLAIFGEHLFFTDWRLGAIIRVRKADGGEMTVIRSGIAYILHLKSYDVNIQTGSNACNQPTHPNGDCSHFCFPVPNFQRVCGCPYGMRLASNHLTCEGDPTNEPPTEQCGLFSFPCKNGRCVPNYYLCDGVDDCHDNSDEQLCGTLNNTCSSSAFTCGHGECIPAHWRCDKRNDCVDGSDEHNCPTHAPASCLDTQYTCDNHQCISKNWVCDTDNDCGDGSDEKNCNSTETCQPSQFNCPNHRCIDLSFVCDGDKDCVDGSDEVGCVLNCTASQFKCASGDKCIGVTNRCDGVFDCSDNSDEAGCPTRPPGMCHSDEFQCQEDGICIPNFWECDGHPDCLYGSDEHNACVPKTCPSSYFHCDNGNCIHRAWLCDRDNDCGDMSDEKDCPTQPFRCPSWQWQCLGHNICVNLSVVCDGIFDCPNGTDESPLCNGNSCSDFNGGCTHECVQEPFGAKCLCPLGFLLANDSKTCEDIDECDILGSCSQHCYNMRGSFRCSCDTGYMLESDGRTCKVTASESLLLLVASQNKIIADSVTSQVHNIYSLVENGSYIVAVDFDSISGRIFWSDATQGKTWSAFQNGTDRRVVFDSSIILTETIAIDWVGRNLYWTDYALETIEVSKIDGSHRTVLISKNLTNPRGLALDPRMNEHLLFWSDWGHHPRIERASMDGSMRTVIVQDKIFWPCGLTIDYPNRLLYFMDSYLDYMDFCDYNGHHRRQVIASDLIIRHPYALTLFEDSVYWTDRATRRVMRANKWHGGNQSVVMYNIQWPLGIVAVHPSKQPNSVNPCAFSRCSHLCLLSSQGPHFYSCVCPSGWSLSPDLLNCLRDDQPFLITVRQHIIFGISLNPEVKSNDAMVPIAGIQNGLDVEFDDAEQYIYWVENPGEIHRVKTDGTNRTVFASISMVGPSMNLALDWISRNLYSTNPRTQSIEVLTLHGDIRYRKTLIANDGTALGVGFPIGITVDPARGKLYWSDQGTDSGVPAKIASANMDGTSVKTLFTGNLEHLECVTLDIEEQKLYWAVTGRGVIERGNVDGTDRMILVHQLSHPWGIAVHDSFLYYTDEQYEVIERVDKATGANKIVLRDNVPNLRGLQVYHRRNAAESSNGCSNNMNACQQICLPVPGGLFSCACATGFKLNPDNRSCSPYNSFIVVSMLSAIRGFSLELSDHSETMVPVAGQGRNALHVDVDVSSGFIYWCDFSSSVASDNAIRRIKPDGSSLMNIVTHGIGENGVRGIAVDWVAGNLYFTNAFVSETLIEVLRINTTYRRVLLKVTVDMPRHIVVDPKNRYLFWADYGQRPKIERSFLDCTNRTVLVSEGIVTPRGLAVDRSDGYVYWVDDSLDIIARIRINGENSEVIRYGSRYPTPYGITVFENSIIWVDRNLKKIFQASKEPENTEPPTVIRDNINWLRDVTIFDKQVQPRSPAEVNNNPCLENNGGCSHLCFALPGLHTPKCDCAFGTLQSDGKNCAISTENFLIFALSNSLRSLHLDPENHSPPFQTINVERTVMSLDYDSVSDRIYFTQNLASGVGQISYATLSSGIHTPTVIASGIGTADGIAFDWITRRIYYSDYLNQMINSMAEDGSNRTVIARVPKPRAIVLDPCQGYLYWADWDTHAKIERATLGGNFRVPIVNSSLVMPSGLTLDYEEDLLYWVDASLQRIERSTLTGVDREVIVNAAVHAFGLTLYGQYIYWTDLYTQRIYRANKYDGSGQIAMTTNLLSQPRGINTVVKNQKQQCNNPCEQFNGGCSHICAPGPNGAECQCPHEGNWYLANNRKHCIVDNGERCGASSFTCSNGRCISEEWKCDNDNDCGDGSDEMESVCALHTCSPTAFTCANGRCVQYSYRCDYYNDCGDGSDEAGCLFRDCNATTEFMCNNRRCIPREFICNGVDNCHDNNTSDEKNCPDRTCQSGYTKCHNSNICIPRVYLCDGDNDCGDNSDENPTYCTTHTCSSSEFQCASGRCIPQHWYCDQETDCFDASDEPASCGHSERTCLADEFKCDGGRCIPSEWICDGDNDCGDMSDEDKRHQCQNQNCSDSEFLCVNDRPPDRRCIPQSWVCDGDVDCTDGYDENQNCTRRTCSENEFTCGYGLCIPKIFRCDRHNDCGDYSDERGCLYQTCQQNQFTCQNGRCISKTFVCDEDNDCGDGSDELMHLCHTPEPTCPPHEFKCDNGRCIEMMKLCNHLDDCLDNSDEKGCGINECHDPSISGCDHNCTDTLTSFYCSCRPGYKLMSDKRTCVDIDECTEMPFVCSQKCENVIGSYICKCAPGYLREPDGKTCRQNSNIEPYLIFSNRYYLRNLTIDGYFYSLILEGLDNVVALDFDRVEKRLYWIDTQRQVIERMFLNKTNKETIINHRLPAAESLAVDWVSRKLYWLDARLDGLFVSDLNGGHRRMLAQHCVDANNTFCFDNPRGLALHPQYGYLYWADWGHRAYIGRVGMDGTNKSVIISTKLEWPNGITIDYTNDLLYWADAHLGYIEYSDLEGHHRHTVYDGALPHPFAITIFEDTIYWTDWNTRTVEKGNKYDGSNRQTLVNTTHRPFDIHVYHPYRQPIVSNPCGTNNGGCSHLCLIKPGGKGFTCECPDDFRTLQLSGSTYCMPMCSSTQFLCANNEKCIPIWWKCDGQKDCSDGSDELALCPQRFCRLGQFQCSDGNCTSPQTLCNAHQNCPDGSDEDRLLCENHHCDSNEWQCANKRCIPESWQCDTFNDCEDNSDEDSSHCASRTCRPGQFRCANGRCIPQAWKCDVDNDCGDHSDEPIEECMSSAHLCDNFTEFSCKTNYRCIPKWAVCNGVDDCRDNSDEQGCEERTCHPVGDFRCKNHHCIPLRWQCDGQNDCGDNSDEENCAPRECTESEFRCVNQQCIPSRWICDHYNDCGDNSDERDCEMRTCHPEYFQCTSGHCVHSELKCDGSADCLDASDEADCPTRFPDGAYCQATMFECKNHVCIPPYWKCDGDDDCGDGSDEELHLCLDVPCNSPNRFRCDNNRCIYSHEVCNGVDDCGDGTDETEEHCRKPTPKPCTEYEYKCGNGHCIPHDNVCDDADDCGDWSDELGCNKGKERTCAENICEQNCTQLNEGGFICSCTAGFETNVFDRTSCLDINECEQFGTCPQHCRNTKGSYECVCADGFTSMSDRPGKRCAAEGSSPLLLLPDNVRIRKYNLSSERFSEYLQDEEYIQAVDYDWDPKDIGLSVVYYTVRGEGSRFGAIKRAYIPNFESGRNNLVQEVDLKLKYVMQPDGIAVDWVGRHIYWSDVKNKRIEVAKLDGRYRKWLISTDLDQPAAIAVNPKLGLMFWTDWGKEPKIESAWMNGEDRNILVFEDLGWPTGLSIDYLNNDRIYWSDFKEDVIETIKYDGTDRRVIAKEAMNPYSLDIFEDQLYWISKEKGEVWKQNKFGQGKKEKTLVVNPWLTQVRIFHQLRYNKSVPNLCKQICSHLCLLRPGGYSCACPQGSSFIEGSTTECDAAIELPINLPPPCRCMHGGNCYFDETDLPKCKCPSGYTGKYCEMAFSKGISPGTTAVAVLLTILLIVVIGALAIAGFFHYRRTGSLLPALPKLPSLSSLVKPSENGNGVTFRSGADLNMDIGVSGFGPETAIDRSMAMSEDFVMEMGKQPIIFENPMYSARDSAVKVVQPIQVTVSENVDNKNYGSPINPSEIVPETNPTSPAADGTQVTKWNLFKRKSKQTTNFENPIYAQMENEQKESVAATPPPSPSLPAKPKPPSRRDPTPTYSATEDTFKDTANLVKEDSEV

intrinsic clearance of 25OHD3 loss (CLint,25OHD3) from the perfusion medium of the PT-MPS with 3 uM DBP; fold-change with 1 uM RAP (megalin inhibitor) against no RAP, geometric mean of 5 donors (fold reduction): 2.4
Substance: Mixed type human vitamin D binding protein (from UniProt P02774 17-474) (natural protein)
